The numbers were not newly measured in paper PMC12990809, which cites them from elsewhere.

Common to all, as to assay: pulldown
Holding throughout (details): 20 nM protein, 1.5 uM RNA pool; 20 mM HEPES pH 7.8, 70 mM KCl, 10 mM NaCl, 10% glycerol, 2 mM DTT, 0.1 ug/uL BSA; 30 min, 4 C (protocol of this paper; not …); cited from earlier work

For data set [1], the target named is PCBP1 (Homo sapiens) (UniProt Q15365).
Data set [2] concerns the target CELF5 (Homo sapiens) (UniProt Q8N6W0).
Data set [3] has as its target T1, HNRNPH2 (Homo sapiens) (UniProt P55795).
T1 sequence: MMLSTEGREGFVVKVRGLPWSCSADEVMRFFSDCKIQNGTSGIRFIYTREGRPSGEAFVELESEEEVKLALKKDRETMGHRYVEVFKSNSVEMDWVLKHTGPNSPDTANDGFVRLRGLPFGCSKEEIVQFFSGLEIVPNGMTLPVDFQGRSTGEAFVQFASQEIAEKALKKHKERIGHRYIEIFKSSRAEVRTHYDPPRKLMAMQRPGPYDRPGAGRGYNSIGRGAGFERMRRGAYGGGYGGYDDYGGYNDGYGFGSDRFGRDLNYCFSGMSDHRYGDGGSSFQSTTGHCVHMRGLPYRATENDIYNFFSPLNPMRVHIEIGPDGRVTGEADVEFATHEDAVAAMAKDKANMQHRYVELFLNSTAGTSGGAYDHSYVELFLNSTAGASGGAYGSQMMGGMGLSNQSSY

The target of data set [4] is FXR1 (Homo sapiens) (UniProt P51114).
Chain of FXR1 (Homo sapiens) (P51114 170-401): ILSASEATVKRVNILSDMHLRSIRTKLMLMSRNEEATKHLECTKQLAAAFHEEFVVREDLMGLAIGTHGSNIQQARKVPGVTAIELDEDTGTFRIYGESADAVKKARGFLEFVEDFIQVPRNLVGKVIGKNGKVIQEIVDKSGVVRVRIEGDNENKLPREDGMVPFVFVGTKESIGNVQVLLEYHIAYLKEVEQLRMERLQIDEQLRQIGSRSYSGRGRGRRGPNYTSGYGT
Data set [5] addresses T2, RBM24 (Homo sapiens) (UniProt Q9BX46).
T2 sequence: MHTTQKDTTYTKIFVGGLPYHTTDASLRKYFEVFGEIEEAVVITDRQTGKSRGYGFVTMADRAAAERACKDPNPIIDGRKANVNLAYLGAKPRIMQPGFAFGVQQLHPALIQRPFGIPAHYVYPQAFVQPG

Data set [6] deals with HNRNPCL1 (Homo sapiens) (UniProt O60812).
Chain of HNRNPCL1 (Homo sapiens) (O60812 1-131): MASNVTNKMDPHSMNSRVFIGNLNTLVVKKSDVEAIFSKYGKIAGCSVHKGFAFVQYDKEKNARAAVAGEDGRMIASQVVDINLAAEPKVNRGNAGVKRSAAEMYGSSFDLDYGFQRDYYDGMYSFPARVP
The target of data set [7] is IGF2BP3 (Homo sapiens) (UniProt O00425).
Chain of IGF2BP3 (Homo sapiens) (O00425 whole entry): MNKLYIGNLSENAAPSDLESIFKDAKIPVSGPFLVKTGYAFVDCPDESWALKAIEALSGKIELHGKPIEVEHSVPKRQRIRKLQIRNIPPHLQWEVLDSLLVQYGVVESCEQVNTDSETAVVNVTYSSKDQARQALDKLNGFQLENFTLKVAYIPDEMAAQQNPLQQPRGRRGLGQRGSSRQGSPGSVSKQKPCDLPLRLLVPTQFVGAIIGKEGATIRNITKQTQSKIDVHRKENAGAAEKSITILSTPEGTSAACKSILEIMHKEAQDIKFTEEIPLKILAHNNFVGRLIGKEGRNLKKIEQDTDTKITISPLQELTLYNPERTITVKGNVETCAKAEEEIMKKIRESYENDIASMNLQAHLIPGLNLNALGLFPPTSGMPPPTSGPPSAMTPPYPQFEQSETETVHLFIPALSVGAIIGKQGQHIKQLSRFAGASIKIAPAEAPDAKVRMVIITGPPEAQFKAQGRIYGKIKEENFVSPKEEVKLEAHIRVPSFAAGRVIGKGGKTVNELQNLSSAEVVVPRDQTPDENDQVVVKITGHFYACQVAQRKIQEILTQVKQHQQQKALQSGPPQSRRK
The target in data set [8] is KHDRBS1 (Homo sapiens) (UniProt Q07666).
Chain of KHDRBS1 (Homo sapiens) (Q07666 107-291): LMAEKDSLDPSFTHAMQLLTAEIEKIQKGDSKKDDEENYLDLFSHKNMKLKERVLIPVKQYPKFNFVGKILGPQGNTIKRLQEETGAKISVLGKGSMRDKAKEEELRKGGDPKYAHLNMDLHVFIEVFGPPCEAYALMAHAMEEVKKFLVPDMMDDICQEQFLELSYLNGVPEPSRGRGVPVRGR
In data set [9] the target is T3, mec-8 (Caenorhabditis elegans) (UniProt G5ECJ4).
T3 sequence: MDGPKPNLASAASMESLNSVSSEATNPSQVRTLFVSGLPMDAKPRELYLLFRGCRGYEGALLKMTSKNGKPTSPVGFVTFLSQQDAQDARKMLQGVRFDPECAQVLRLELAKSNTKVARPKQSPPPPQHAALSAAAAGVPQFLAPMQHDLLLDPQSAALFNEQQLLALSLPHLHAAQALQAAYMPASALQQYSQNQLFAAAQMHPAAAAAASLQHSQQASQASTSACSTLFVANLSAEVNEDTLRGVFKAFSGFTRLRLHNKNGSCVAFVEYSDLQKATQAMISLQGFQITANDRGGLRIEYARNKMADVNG

Data set [10] has as its target T4, asd-1 (Caenorhabditis elegans) (UniProt A1BPT6).
T4 sequence: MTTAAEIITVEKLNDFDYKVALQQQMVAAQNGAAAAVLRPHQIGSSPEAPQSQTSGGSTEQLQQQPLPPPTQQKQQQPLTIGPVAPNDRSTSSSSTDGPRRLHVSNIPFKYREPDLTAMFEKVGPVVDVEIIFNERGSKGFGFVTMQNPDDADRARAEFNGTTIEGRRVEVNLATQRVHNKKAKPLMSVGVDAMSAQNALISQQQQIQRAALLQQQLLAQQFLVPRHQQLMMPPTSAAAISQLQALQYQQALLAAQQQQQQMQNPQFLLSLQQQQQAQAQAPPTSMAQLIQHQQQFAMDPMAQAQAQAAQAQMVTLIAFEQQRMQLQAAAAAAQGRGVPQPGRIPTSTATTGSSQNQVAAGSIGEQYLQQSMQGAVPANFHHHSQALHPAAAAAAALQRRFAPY

The target in data set [11] is T5, exc-7 (Caenorhabditis elegans) (UniProt Q20084).
T5 sequence: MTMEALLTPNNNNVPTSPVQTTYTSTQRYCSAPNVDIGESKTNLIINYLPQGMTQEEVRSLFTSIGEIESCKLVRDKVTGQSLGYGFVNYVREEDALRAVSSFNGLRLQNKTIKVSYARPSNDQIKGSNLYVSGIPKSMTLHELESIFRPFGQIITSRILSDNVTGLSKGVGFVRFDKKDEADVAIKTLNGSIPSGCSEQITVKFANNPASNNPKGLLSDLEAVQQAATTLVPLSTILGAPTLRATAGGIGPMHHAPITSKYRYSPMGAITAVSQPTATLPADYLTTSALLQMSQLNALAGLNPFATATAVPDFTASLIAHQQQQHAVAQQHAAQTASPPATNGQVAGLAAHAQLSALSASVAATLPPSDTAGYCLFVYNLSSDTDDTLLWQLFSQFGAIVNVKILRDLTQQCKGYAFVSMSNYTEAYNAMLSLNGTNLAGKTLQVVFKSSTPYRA

The target in data set [12] is T6, sup-12 (Caenorhabditis elegans) (UniProt O45189).
T6 sequence: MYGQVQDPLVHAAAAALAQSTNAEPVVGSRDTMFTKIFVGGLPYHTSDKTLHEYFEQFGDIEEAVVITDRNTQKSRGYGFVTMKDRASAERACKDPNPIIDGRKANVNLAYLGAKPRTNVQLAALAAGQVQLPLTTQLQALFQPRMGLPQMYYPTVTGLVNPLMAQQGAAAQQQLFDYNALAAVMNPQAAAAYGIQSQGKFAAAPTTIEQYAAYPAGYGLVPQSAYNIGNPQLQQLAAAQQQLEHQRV

For data set [13], the target named is T7, DAZAP1 (Homo sapiens) (UniProt Q96EP5).
T7 sequence: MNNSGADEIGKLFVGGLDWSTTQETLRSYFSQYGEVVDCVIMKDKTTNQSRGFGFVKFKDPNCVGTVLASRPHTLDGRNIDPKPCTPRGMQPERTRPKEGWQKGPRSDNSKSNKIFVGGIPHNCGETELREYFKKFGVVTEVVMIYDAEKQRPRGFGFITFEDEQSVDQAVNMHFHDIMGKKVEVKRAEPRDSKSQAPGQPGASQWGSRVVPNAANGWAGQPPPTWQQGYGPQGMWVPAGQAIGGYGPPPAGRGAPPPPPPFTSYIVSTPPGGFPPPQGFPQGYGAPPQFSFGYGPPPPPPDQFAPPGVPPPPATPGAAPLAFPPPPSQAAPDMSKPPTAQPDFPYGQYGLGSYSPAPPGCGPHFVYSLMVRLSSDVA

The target of data set [14] is CELF6 (Homo sapiens) (UniProt Q96J87).
Chain of CELF6 (Homo sapiens) (Q96J87 whole entry): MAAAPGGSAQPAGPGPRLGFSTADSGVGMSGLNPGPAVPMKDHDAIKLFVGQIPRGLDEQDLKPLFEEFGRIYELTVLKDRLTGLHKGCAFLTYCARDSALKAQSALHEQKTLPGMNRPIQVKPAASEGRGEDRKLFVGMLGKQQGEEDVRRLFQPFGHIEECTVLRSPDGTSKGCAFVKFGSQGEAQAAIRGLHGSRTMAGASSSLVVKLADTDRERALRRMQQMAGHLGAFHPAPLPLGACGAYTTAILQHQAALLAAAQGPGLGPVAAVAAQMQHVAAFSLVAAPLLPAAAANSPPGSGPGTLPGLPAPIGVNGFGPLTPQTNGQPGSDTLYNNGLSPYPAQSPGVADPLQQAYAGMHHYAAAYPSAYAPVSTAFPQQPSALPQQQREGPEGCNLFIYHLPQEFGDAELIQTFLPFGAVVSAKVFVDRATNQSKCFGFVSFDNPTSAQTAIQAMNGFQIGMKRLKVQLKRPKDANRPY
Data set [15] deals with PABPC5 (Homo sapiens) (UniProt Q96DU9).
Chain of PABPC5 (Homo sapiens) (Q96DU9 whole entry): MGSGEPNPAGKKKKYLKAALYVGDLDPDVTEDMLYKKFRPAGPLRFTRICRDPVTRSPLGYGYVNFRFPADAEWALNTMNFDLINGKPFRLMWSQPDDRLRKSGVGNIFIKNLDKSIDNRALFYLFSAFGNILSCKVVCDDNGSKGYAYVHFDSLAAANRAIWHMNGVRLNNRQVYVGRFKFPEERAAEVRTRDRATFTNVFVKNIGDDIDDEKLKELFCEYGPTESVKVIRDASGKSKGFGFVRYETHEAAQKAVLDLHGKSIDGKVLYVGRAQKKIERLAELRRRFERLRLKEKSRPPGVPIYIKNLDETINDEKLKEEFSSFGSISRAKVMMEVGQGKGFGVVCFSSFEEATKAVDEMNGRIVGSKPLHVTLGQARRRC
Data set [16] has as its target T8, HNRNPLL (Homo sapiens) (UniProt Q8WVV9).
T8 sequence: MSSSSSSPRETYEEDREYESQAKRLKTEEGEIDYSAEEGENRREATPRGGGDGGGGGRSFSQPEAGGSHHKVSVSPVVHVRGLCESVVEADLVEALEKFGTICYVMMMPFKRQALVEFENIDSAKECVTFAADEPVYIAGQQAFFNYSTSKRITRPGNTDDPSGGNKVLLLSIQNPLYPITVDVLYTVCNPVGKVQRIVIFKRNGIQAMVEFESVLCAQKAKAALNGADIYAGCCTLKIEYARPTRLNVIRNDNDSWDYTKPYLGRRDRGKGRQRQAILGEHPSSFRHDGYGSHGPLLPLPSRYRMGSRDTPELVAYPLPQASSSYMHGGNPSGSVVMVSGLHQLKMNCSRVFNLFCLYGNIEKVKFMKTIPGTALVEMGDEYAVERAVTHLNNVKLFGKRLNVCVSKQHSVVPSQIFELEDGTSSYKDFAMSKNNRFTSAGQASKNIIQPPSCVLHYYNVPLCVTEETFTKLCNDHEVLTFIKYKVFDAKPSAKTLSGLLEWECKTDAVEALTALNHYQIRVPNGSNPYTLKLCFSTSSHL

Data set [17] deals with T9, A2BP1 (Homo sapiens) (UniProt Q9NWB1).
T9 sequence: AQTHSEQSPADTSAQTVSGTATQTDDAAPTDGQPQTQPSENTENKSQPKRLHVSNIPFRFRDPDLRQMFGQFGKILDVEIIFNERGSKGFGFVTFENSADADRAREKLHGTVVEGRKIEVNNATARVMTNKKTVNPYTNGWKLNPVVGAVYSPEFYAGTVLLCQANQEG

The target in data set [18] is T10, sup-26 (Caenorhabditis elegans) (UniProt D5MCR3).
T10 sequence: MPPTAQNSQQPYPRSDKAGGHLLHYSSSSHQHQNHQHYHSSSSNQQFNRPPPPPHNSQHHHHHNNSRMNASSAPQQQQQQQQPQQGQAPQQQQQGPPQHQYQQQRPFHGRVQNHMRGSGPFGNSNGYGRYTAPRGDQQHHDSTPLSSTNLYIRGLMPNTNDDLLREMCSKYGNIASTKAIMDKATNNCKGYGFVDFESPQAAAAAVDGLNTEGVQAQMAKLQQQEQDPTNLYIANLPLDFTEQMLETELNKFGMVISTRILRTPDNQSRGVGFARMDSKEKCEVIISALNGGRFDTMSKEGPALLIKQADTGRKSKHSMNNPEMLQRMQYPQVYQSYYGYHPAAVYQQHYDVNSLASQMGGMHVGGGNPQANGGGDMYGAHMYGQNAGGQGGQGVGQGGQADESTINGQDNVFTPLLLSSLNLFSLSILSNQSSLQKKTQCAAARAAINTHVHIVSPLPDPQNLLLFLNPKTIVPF

In data set [19] the target is T11, KHDRBS2 (Homo sapiens) (UniProt Q5VWX1).
T11 sequence: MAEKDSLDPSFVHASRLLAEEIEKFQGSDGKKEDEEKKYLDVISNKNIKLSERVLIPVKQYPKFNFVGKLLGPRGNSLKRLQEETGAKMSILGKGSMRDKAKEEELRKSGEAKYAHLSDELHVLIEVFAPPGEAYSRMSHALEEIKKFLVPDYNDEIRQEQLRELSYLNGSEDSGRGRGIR

Data set [20] concerns the target T12, etr-1 (Caenorhabditis elegans) (UniProt A8DYS0).
T12 sequence: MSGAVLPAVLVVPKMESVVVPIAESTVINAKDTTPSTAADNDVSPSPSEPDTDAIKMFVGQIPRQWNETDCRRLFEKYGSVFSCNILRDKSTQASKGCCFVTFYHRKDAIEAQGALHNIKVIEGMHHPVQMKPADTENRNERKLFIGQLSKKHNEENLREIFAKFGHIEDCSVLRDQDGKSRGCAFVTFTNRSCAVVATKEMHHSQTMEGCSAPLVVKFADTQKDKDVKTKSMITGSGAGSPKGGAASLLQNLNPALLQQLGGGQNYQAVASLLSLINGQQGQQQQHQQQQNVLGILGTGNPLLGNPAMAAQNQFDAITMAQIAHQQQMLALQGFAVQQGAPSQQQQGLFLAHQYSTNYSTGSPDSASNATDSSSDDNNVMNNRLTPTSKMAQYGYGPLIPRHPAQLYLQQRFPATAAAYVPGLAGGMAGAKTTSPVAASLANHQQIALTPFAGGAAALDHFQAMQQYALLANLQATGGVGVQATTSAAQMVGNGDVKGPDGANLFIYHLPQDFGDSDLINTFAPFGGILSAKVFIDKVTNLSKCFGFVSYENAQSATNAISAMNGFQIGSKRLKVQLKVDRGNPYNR

Chain of PCBP1 (Homo sapiens) (Q15365 whole entry): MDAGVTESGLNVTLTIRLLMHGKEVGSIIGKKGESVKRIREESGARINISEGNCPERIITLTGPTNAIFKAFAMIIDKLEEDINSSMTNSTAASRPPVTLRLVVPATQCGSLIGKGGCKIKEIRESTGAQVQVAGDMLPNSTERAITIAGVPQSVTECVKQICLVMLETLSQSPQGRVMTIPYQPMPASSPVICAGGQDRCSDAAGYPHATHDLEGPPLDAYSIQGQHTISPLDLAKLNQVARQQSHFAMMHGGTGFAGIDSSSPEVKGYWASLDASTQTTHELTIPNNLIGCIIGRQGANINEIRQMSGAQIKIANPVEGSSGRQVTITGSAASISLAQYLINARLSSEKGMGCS
Chain of CELF5 (Homo sapiens) (Q8N6W0 whole entry): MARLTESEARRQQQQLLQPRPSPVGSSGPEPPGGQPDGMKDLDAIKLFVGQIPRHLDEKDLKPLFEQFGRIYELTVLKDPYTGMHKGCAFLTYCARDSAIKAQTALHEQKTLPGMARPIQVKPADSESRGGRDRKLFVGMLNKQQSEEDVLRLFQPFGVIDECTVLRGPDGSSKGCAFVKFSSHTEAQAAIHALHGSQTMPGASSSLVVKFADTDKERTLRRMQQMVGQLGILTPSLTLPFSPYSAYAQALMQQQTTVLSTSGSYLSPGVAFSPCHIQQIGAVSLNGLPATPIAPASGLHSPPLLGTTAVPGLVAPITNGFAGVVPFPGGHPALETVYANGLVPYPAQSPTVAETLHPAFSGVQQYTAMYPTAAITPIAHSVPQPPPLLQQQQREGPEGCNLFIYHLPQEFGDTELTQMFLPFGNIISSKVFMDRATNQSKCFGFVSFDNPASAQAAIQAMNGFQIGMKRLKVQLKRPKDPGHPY

Turning to CCNANCC [RNAcompete motif RNCMPT00186], in data set [1], the binding signal (z-score (mean of top ten 7-mers)) is 6.42.

On to GUGUGUG [RNAcompete motif RNCMPT00166], for which the binding signal (z-score (mean of top ten 7-mers)) in data set [2] was 9.48.

Consider GGGAGGG [RNAcompete motif RNCMPT00160], for which the binding signal (z-score (mean of top ten 7-mers)) in [3] was 16.8.

Consider AAUGACAA [RNAcompete motif RNCMPT00161], for which the binding signal (z-score (mean of top ten 7-mers)) in data set [4] is 6.01.

Regarding GUGUGA [RNAcompete motif RNCMPT00184], in data set [5], the binding signal (z-score (mean of top ten 7-mers)) was 10.6.

Consider UUUUUU [RNAcompete motif RNCMPT00167], for which the binding signal (z-score (mean of top ten 7-mers)) in [6] is 18.4.

In the case of AACAA [RNAcompete motif RNCMPT00172], the binding signal (z-score (mean of top ten 7-mers)) in data set [7] was 6.02.

Take AUAAAAG [RNAcompete motif RNCMPT00169]: in data set [8], the binding signal (z-score (mean of top ten 7-mers)) was 9.86.

Take AGCACA [RNAcompete motif RNCMPT00181]: in data set [9], the binding signal (z-score (mean of top ten 7-mers)) was 8.36.

As for UGCAUGA [RNAcompete motif RNCMPT00180], in data set [10], the binding signal (z-score (mean of top ten 7-mers)) was 20.3.

Consider UUAAGUU [RNAcompete motif RNCMPT00014], for which, in [11], the binding signal (z-score (mean of top ten 7-mers)) was 13.7.

Regarding UGUGUG [RNAcompete motif RNCMPT00416], the binding signal (z-score (mean of top ten 7-mers)) in data set [12] was 10.8.

Take UAGGUAG [RNAcompete motif RNCMPT00013]: the binding signal (z-score (mean of top ten 7-mers)) in data set [13] is 7.92.

As for UGUGGUG [RNAcompete motif RNCMPT00187], the binding signal (z-score (mean of top ten 7-mers)) in [14] was 7.27.

For AGAAANU [RNAcompete motif RNCMPT00171], the binding signal (z-score (mean of top ten 7-mers)) in [15] was 7.11.

As for ACANACA [RNAcompete motif RNCMPT00178], the binding signal (z-score (mean of top ten 7-mers)) in [16] was 9.56.

Consider UGCAUG [RNAcompete motif RNCMPT00168], for which the binding signal (z-score (mean of top ten 7-mers)) in [17] was 23.3.

Consider UAUAUA [RNAcompete motif RNCMPT00182], for which the binding signal (z-score (mean of top ten 7-mers)) in [18] was 6.85.

As to AUAAA [RNAcompete motif RNCMPT00185], in [19], the binding signal (z-score (mean of top ten 7-mers)) was 8.2.

In the case of GUGUGUU [RNAcompete motif RNCMPT00183], in data set [20], the binding signal (z-score (mean of top ten 7-mers)) is 8.98.
